Residue numbers refer to the chain shown, from its start. Names and notes keep the numbering of the source.

Assay [1] has as its target T1, Y152A NKG2D-Fc (Example 5) (human).
T1 construct: also called non-natural Y152A NKG2D; not shown: Fc
T1 chain: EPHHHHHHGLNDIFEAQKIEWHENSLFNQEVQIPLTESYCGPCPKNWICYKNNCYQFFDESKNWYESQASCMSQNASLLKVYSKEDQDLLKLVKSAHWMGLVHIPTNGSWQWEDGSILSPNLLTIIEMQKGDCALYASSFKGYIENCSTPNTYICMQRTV
The experiment in a line: phage ELISA. A general note: In an ELISA, binding on a coated surface is turned into a signal by an enzyme label.

For assay [2], the target named is T2, human NKG2D-Fc (human, UniProt P26718 78-216).
T2 construct: also called natural NKG2D-Fc; not shown: Fc
T2 sequence (looked up): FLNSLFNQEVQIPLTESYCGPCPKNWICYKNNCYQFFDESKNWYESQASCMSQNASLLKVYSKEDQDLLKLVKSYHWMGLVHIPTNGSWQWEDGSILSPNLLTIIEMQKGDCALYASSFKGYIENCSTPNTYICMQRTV
Nature of the assay: competition ELISA vs coated WT sMICA, 2 nM human NKG2D-Fc. An excerpt:
(§1) To the NKG2DLs in the above example, we directly attached heterologous molecules such as a polypeptide to each of these 4 modified α1-α2 NKG2DLs using a linker peptide. Four His-tagged proteins (SEQ ID NOs.: 25-28) consisting of modified NKG2DLs with attached heterologous molecules were expressed in insect cells and purified to characterize their NKG2D binding affinities and kinetic binding parameters. Using a competitive binding ELISA, we determined the relative NKG2D binding affinities of the 4 modified α1-α2 variants.

A further assay concerns the target T3, ULBP4-Fc (R&D Systems) (human, UniProt Q8TD07 31-225).
T3 construct: not shown: Fc of the bought reagent
T3 sequence (looked up): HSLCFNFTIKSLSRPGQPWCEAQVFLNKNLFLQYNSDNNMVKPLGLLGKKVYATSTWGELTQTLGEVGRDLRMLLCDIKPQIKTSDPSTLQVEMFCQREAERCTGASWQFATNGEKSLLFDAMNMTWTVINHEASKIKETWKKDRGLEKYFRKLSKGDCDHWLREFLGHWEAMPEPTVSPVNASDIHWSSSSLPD
The experiment in a line: ELISA, ligand-Fc coated, biotinylated NKG2D titrated. Here is the method:
(§2) In addition to purifying the above 3 Fc-fusion proteins NKG2D ligand-Fc fusion proteins MICB-Fc, ULBP1-Fc, ULBP2-Fc, ULBP3-Fc, and ULBP4-Fc were purchased from R&D Systems, Inc. (Minneapolis, Minn.). Binding of the different α1-α2 domain-Fc fusions to both natural and non-natural NKG2D ectodomain proteins was analyzed using a plate-based ELISA method. All of the natural and non-natural α1-α2 domain-Fc fusions were coated overnight at 4° C. onto separate wells of Maxisorp 96 well plates using a coating concentration of 2 μg/ml in phosphate-buffered saline (PBS). The plates were washed 3-times in PBS/0.05% Tween20 at 20-22° C., and blocked with 0.5% bovine serum albumin for 2 hours. The biotinylated natural and non-natural NKG2D receptor proteins were titrated against the plate-bound NKG2D ligands for 2 hours at 20-22° C., washed 3 times with PBS/0.05% Tween20 at 20-22° C., and the bound NKG2D proteins subsequently detected using a streptavidin-HRP secondary detection step and developed with 1-Step Ultra TMB Elisa.

A further assay has as its target T4, MICB-Fc (R&D Systems) (human, UniProt Q29980 23-298).
T4 construct: not shown: Fc of the bought reagent
T4 sequence (looked up): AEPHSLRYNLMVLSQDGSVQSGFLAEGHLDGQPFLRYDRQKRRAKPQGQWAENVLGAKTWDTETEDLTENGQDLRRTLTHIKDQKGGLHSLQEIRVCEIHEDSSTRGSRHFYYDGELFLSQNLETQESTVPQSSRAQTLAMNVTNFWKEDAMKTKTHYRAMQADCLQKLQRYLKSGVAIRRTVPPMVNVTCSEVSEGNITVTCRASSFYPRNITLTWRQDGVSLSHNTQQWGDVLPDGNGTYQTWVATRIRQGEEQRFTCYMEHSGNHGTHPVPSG
The assay is described as above. Here is the method:
as §2

The target of another assay is T5, ULBP1-Fc (R&D Systems) (human, UniProt Q9BZM6 26-216).
T5 construct: not shown: Fc of the bought reagent
T5 sequence (looked up): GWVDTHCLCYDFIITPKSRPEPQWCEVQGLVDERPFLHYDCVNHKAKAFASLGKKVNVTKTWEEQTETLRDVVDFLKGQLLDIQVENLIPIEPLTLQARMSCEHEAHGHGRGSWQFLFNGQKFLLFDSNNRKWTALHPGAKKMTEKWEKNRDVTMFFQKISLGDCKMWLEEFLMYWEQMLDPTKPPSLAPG
The assay is described as above. How it is done:
as §2

For a further assay, the target named is T6, ULBP3-Fc (R&D Systems) (human, UniProt Q9BZM4 30-217).
T6 construct: not shown: Fc of the bought reagent
T6 sequence (looked up): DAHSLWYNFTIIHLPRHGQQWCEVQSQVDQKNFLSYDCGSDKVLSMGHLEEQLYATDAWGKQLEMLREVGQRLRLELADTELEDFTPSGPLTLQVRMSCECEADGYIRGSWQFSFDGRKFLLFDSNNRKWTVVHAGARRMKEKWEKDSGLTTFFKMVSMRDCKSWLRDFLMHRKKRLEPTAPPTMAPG
The assay is described as above. How it is done: as §2

Another assay has as its target T7, ULBP2-Fc (R&D Systems) (human, UniProt Q9BZM5 26-217).
T7 construct: not shown: Fc of the bought reagent
T7 sequence (looked up): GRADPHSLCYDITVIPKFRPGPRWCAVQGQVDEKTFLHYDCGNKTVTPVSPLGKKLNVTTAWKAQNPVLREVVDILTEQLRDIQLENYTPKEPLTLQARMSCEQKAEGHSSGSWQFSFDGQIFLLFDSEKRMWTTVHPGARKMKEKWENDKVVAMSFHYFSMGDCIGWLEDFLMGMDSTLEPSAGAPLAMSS
The assay is described as above. How it is done: as §2

Assay [3] addresses T8, biotinylated human NKG2D (Example 1) (human, UniProt P26718 78-216).
T8 construct: also called recombinant biotinylated NKG2D
T8 sequence (looked up): T2 sequence (looked up)
Nature of the assay: BLI (Octet), Kd = kOFF/kON. (In general: In BLI a coated tip is dipped into the sample, and binding shifts an interference pattern.)

The target in assay [4] is T8, biotinylated human NKG2D (Example 1). Nature of the assay: BLI (Octet), biotinylated human NKG2D coated, 100 nM analyte.
Assay [5] has as its target T2, human NKG2D-Fc. Nature of the assay: competition ELISA vs coated WT sMICA.
Description: as §1

B1: ULBP2.S1 (phage clone) (ligand)
chain: AAEPHSLSYDITVIPKFRPGPRWCAVQGQVDEKTFLHYDCGNKTVTPVSPLGKKLNVTTAWKAQNPVLREVVDILTEQLWDIQLENYTPKEPLTLQARMSCEQKAEGHSSGSWQFSFDGQIFLLFDSEKRMWTTVHPGARKMKEKWENDKVVATTLYTWSMGDCIGWLEDFLMGMDSTLEPSAGAP
For the molecule B1, the “fold selective binding to Y152A NKG2D over natural NKG2D” value (from here on “fold selective binding to Y152A NKG2D”) in [1] was greater than 10 fold.

B2: ULBP2.S3 (phage clone) (ligand)
chain: B1 chain with T155K, T158L
As for B2, in [1], the “fold selective binding to Y152A NKG2D” value is greater than 10 fold.

B3: ULBP2.S2 (phage clone) (ligand)
chain: B1 chain with T155L, L156M, Y157R, T158I
Consider B3, for which the “fold selective binding to Y152A NKG2D” value in assay [1] was greater than 10 fold.

B4: ULBP3.S1 (phage clone) (ligand)
chain: AAEPHSLWYNFTIIHLPRHGQQWCEVQSQVDQKNFLSYDCGSDKVLSMGHLEEQLYATDAWGKQLEMLREVGQRLRLELADTELEDFTPSGPLTLQVRMSCESEADGYIRGSWQFSFDGRKFLLFDSNNRKWTVVHAGARRMKEKWEKDSGLTTDLIRRSMGDCKSWLRDFLMHRKKRLEPTAP
In the case of B4, the “fold selective binding to Y152A NKG2D” value in assay [1] was greater than 10 fold.

B5: ULBP3.S2 (phage clone) (ligand)
chain: B4 chain with D155Y, L156F, I157Y, R158L
B5: the “fold selective binding to Y152A NKG2D” value in assay [1] is greater than 10 fold.

B6: MICA25.17 (phage clone) (ligand)
chain: EPHSLRYNLTVLSWDGSVQSGFLTEVHLDGQPFLRCDRQKCRAKPQGQWAEDVLGNKTWDRETRDLTGWGTTLLMTLAHIKDQKEGLHSLQEIRVCEIHEDNSTRSSQHFYYDGELFLSQNLETLEWTMPQSSRAQTLAMNVRNFLKEDAMETDIGYRLMRADCLSELRRYLKSGVVLRRTV
B6: the “fold selective binding to Y152A NKG2D” value in assay [1] was greater than 10 fold.

B7: MICA25.18 (phage clone) (ligand)
chain: B6 chain with T72F, L74R, I155R, G156S, Y157G, R158L
Regarding B7, the “fold selective binding to Y152A NKG2D” value in [1] is greater than 10 fold.

B8: WT α1-α2 domain (soluble wild-type MICA, titrated) (ligand, UniProt Q29983 24-204, looked up)
chain: EPHSLRYNLTVLSWDGSVQSGFLTEVHLDGQPFLRCDRQKCRAKPQGQWAEDVLGNKTWDRETRDLTGNGKDLRMTLAHIKDQKEGLHSLQEIRVCEIHEDNSTRSSQHFYYDGELFLSQNLETKEWTMPQSSRAQTLAMNVRNFLKEDAMKTKTHYHAMHADCLQELRRYLKSGVVLRRT
notes: domain: α1-α2; also called WT MICA; WT NKG2DL
With B8, the IC50 (as a rule, the midpoint of a concentration-inhibition curve) in the assay with human NKG2D-Fc [2] was determined as 19.4 nM.

B9: His-avitag natural NKG2D ectodomain, biotinylated (receptor)
chain: T1 chain with A96Y
notes: also called natural form of the ectodomain of NKG2D
Take B9: the binding result with ULBP4-Fc (R&D Systems), in the assay with MICB-Fc (R&D Systems), in the assay with ULBP1-Fc (R&D Systems), with ULBP3-Fc (R&D Systems) and with ULBP2-Fc (R&D Systems) was “binds” throughout.

B10: Y152A mutant NKG2D ectodomain (His-avitag, biotinylated) (receptor)
chain: T1 chain
notes: also called Y152A non-natural NKG2D receptor; not shown: N-terminal His-avitag
Consider B10, for which the binding result with ULBP4-Fc (R&D Systems), with MICB-Fc (R&D Systems), with ULBP1-Fc (R&D Systems), with ULBP3-Fc (R&D Systems) and in the assay with ULBP2-Fc (R&D Systems) was “no binding” each time.

B11: Y199A mutant NKG2D ectodomain (His-avitag, biotinylated) (receptor)
chain: T1 chain with A96Y, Y143A
notes: not shown: N-terminal His-avitag
Turning to B11, the binding result in the assay with ULBP4-Fc (R&D Systems), in the assay with MICB-Fc (R&D Systems), in the assay with ULBP1-Fc (R&D Systems), with ULBP3-Fc (R&D Systems) and in the assay with ULBP2-Fc (R&D Systems) was “no binding” each time.

B12: double Y152A plus Y199A mutant NKG2D ectodomain (His-avitag, biotinylated) (receptor)
chain: T1 chain with Y143A
notes: as for B11
With B12, the binding result with ULBP4-Fc (R&D Systems), in the assay with MICB-Fc (R&D Systems), in the assay with ULBP1-Fc (R&D Systems), with ULBP3-Fc (R&D Systems) and in the assay with ULBP2-Fc (R&D Systems) was “no binding” in each case.

B13: WED-MICA α1-α2 domain (N69W, K152E, K154D) (ligand)
chain: EPHSLRYNLTVLSWDGSVQSGFLTEVHLDGQPFLRCDRQKCRAKPQGQWAEDVLGNKTWDRETRDLTGWGKDLRMTLAHIKDQKEGLHSLQEIRVCEIHEDNSTRSSQHFYYDGELFLSQNLETKEWTMPQSSRAQTLAMNVRNFLKEDAMETDTHYHAMHADCLQELRRYLKSGVVLRRTVPPMVQVTRSEASGGSGDRVTITCRASQDVSTAVAWYQQKPGKAPKLLIYSASFLYSGVPSRFSGSGSGTDFTLTISSLQPEDFATYYCQQSYTTPPTFGQGTKVEIKGGSSRSSSSGGGGSGGGGEVQLVESGGGLVQPGGSLRLSCAASGFTFTSTGISWVRQAPGKGLEWVGRIYPTNGSTNYADSVKGRFTISADTSKNTAYLQMNSLRAEDTAVYYCARTYGIYDLYVDYTEYVMDYWGQGTLVTVSSGGSSRSSSSGGGGSGGGGDIQMTQSPSSLSASGGSGQITVTCRASGFYPWNITLSWRQDGVSLSHDTQQWGDVLPDGQGTYQTWVATRISQGEEQRFTCYMEHSGQHSTHPVPSGKGSHHHHHH
notes: also called WED-α1-α2; MICwed
In the assay with human NKG2D-Fc [2], B13 had an IC50 of 4.4 nM. The Kd (usually a measure of binding affinity in units of concentration) in assay [3] stood at 5.9 nM. In assay [4], the koff (in general, the first-order rate constant of dissociation) turned out to be 0.0017 s⁻¹ and the kon (commonly a measure of how fast the partners come together) came to 290000 M⁻¹ s⁻¹.

B14: α1-α2 variant 15 (His-tagged, with attached heterologous polypeptide) (ligand)
chain: B13 chain with K125N, H161R
With B14, the “fold better binding than WT NKG2DL” value in the assay with human NKG2D-Fc [5] came out at 11 fold. Also, the IC50 in the assay with human NKG2D-Fc [2] came out at 1.7 nM. In assay [3], this molecule gave a Kd of 1.5 nM. Moreover, in [4], the koff stood at 0.00011 s⁻¹ and the kon was found to be 70000 M⁻¹ s⁻¹.

The values above are taken from US20200239541A1 (XYPHOS BIOSCIENCES, published 2020).
